Results on 70 sequences are retold here after the domain aggregation screens of Martell et al. (2025).

A short description of the data set: soluble fraction after stress (log2 fold change); higher = more stays soluble; pooled small domains, quantitative proteomics. The conditions noted are these: stress: 75 degC.
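Further: 20 min heating vs room temperature control held 20 min.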

For the sequence “HMKTYGGDNSLHKFDEHHSWMVAKYGPVVKQTINGETKWLKVKKDLTLAQVKKMKLEDVLLPKSQT”, the “soluble fraction (log2)” value was -0.534.

On to “HMKVDRLVSMILILLEQQRVGAQELADRFEVSVRTIYRDMEAINQAGIPVRSTSGVGGGFEIM”, for which the “soluble fraction (log2)” value was -0.471.

“HMKVFREERLQLILEKLIHEKKVVVSDLVKYFNVSPSLIRMDLAELEKRDLILRTHGGAILPD”: the “soluble fraction (log2)” value was -2.9.

Regarding “HMKVKEYKLVDWISTFTKNEGYGISQKAAMLLAEFLGDDLSRIANEIEKLKLLVEKGTTINDVHIEENI”, the “soluble fraction (log2)” value is -1.09.

For the sequence “HMKVLFLESIEGSASMGEIKDVANGYARNFLFPNGFAVPATPKNLKNVEELQAKELEIQTERDNWAA”, the “soluble fraction (log2)” value was -0.016.

“HMKVSDLIGMLGRVTGELAPTGIVLVGNKTWTAISEDASVIASGEQVQVRSVAGLILTVSHQVD”: the “soluble fraction (log2)” value is -2.32.

Take “HMKVSVPDIMDNSSLRQAEAKLRALGFRVTEPEYISGEKDWVYSVTYKGRTLNAGDKVPHEALLTLHVGNG”: the “soluble fraction (log2)” value is -0.163.

As for “HMKVTADVVVADRLKAWIISNNLKPGDRLPTEQKLSEELGVARHTLREGIKRLSQLGIIGSRTGSGMYVKN”, the “soluble fraction (log2)” value was -1.06.

As for “HMKWIEILKSKDGNYALLQDEKDTQFVVASGYNPDAAEDQKWGHGSYFIYWNNKENKAEMLMNAIDLFRYR”, the “soluble fraction (log2)” value was -2.21.

Regarding “HMKYEFEFPYWSNKEAKHMIVTINYPNGTRATASIQDNDGSNPDYKRIMEEFGEEQIDANTEEGLKRR”, the “soluble fraction (log2)” value was -0.0803.

“HMKYEGEDEYYASLVTEKIAAIGTVTEESEDAIKEARAAYDALTSAQKKLVTNYDVLDEAEK”: the “soluble fraction (log2)” value was -0.144.

In the case of “HMKYGPSTVATLKVARLGEMGAFLDAETGDTSDDILLHKTQQTAPVKVGDEVEVFLYLDPKRRLTASMRV”, the “soluble fraction (log2)” value is -0.118.

Take “HMKYGPSTVAVLTVVRESEMGAFLDAETGRTNDDILLHKTQQTEPVHIGDQVKVFLYLDPKHRLTASMRVP”: the “soluble fraction (log2)” value was -1.03.

Regarding “HMKYNETEFKNLVAKLYNGEIEIVGKFTGLSYPILVKDKYGIMLSQKANLILNYRPTINIALNKTEYAMN”, the “soluble fraction (log2)” value is -0.289.

For “HMKYSELLLEIILQSKEHPTAEQIFIEAKKRNPKIVQATVYNNLKNLLAQGRVIRISNPGQPDRYDNT”, the “soluble fraction (log2)” value was -1.83.

“HMKYVDYYATLGVARDADLATITKAYRKLARQTHPDLNQGADNEARFKAAAEAYATLKHPEKRAAYDELGQ”: the “soluble fraction (log2)” value came to 0.0183.

Consider “HMKYWTISDLYSKLEEDQVELGAFSEDSNKVTVLDRQGYEHVIKILSSDVPALTELFRKKKVRFAVAG”, for which the “soluble fraction (log2)” value is -1.3.

In the case of “HMKYYIYQGVGASGELTKIAEVTDQKTYTVTGLQAKTTYRFAVSSYNGLRESTKSNIVTVTT”, the “soluble fraction (log2)” value is -0.134.

Consider “HMLAAAVVVYATDKVNVRAEASETADVIGQLEAGSQTTRLEDKDGWSRIDYSNGTQGYMKSEFLSTEAPT”, for which the “soluble fraction (log2)” value stood at 0.347.

Regarding “HMLADEPTGALDSKTSVQIMALLTEIAQDRLVIMVTHNPELADEYATRIVNLRDGVISDDSDPFNP”, the “soluble fraction (log2)” value is -0.0933.

In the case of “HMLAEEAFNKQAATAGYVYRDGSYHPAASVAQYDAMPRNYRTNTMAQELSRSQVESQLQQSQ”, the “soluble fraction (log2)” value was 0.752.

Regarding “HMLAGKTYEVQTESGGKWTLVASYNVKSQAIQQAQALLESHKYSGVKVIAESDRKGEEVIFNEQSEVT”, the “soluble fraction (log2)” value is -0.0725.

As for “HMLALKSGQVVVGTIIRRLDNTTAMLRIGNQLFETSFAKGLPKSNHILLRYDAMQGNRFIFTMVE”, the “soluble fraction (log2)” value is -0.635.

“HMLANLNKELQNDAALLKQKAQGNSNLLAKIQDVEQQMKQVNTSSASDEAKAKELQTLQRKLTAYKKALA”: the “soluble fraction (log2)” value is -0.0577.

As to “HMLAVSVDKDGKVYIQDSETAVDAVTAKLRAISGNNSEIRIFVRGDADVNYGRIMEIMGVINAAGFRKVAL”, the “soluble fraction (log2)” value is -0.111.

As for “HMLDEIAGQKVRVLEEINNSEGTGKVMYRGVEWMARSVDDAVMAKDSIVTVQSISGVKLMVT”, the “soluble fraction (log2)” value was -0.184.

Take “HMLDEKAVRQYLLNTLENSEIKMDRQAIDLFLRLTDLDLSKMMRELQKILLYGQEQEVITVKEIEQ”: the “soluble fraction (log2)” value was -0.779.

As to “HMLDGFEVGMTVMKKSGTEIGFTGWPSFADKDELPIIERIDTSDSTLLLKFKDMSWWIKASLVEPS”, the “soluble fraction (log2)” value was -3.55.

For the sequence “HMLDLPEISARIMEVFETKDRATISELSKLTGTNINTIKKHLSSLVENNYLIKHGKTRGAWYTKST”, the “soluble fraction (log2)” value is -0.126.

Regarding “HMLDLVSIGKRIKAERQKNGLTQEALAERIEVSAHYVYELERGLKAMSVPILLRMSEVLHTSTDYLLF”, the “soluble fraction (log2)” value is -3.34.

For “HMLDNHPQSKKIRALWLEMAAAGVVRDSSEQALALWVKRETGISALRWLSNEQASSVIEKLKKWQRRAAG”, the “soluble fraction (log2)” value is -1.47.

On to “HMLDPKVFVGKAGINEGIAKLLLQAFDKADLVKVRFTAERDVMETQMQELARLTGSEVIGNVGRTATF”, for which the “soluble fraction (log2)” value was -0.0412.

On to “HMLEAMDSDEAAKVIEQIVNERADFVRSKGMGAIGPLMGPVMGALRGKVDGKQANELLTAAIKKLL”, for which the “soluble fraction (log2)” value was determined as 0.334.

In the case of “HMLEASVYTAEKSGDRLDAFLAEQAGITRSYAQKLIEGGQVTLGGVVPKKNYKLSAGEQVELILPEN”, the “soluble fraction (log2)” value came out at 0.0466.

In the case of “HMLEKVLDNHIHKLRLQHKISQQELADAIGVSRKTISTVETGRFTPSVVIALKIAAHFSVSVEQVFTL”, the “soluble fraction (log2)” value was -1.14.

For “HMLEPEVLDLIGQVKSVHHFSVTQSHQLEKLVRHAHTLGFEIAELKSLLASSPNAKSLLSSLDQKLEPLRM”, the “soluble fraction (log2)” value is -1.86.

Turning to “HMLEQEQFESKLLKAINNINETQRIAFLMHRIDGKKYAEIASELNISVKAVEKRIHLALIELKKEIENF”, the “soluble fraction (log2)” value was -0.747.

Regarding “HMLEQISDINILSGYAKEVIAENPKTVSDYLSGKAAAFQALVGQVMKKTGGRGNPVIIQEILKRLIHKK”, the “soluble fraction (log2)” value is -0.0597.

Turning to “HMLERKPVLVASRDLPALAVIGKDDLSVELLRTAPVGSYDRPEALLGKRVWVAVPAGSILSAATLEP”, the “soluble fraction (log2)” value is -0.366.

Take “HMLERPLKLKSHYVSTIYEKVAVQYSEGEEKKSVMGTLIEVNQDTIVLDDRGTIIEIPFKSITRAKTVF”: the “soluble fraction (log2)” value is -3.6.

On to “HMLETLVYPNPTTDKILLSSPVDYHLFSLKGELVLEGRGSSIEVSQLSKGVYFLNTKTQTFKIIK”, for which the “soluble fraction (log2)” value was -0.62.

For “HMLGARSLNEAVARNLPQILAKYQLIHIAGKNGFNPELQGRGYVQYEYVDTELKDLMALADIVVSR”, the “soluble fraction (log2)” value was -1.52.

As for “HMLGERIKQIRKQKKMTQTDVATGIITKSMLSMIENGKATPSLPALQAIARRLQVTVEELML”, the “soluble fraction (log2)” value is -2.55.

Turning to “HMLGFELVGIRGNNPESTIIILERDDYRLVEQGQNINSSVIFSHIDGSRAYFFDGQTYTFLDI”, the “soluble fraction (log2)” value is -2.78.

Consider “HMLGITEGSLVRVIRSPNFGKIGTVAELPAELRMMESETMVRIAIVEIEGTNFEIPRSNLEVLET”, for which the “soluble fraction (log2)” value was -1.6.

For “HMLGKEVVRAYNISYAIDDKGSLQGDLTAALTGLIPLSKPPVLDQRNRSLYVTATPEQHKDVAALLAKL”, the “soluble fraction (log2)” value was -0.238.

“HMLGSGSKEQQLVILNNILERQVQAFNLQGGQEYPMVTLKNFYNTLSKMIENAGLKNVENYFVNPDVGKQM”: the “soluble fraction (log2)” value was -0.392.

With “HMLHMKAALGELMSIPGMRSELAGTLFDRGYTSLAQLRAATLDDLERVNGLERADARRIHDFLRKS”, the “soluble fraction (log2)” value is -0.251.

Regarding “HMLHQSLVVNAASGRVTVSLDIVPDEDNPYAVLRATDDSDEPLAQVRVAPSFKLNRASALAWIESQFARP”, the “soluble fraction (log2)” value is -2.34.

Turning to “HMLHSEDATVVRQAIPLLERHVDAATVAVARRNLAQLEQFGRYPRRNQALGRISNPAENAYLRAER”, the “soluble fraction (log2)” value was 0.0695.

As to “HMLIDQYPYSIIYRLIPHGRSNAVPAAQIVGLTKLDERSIRIYVEAMRREGHIIASSSKGYYFPASIEE”, the “soluble fraction (log2)” value was -3.2.

Take “HMLIGLNETESLVLDALIANPMRIDQVSAMLKKDVATTLKFLGGLSVRGLVETLFGGRFAPTKIALHARS”: the “soluble fraction (log2)” value is 0.0549.

For “HMLIIMNSDATKEQVDHVTSRVREAGFKDHIMPGAGKVAIGVTGTGDYDQTKLHLEILPGVFKIMRITK”, the “soluble fraction (log2)” value is -0.816.

As for “HMLIPADETEAKVLSVLSREPLHVDEIRNQAGLPIEKISATLALMELKGMVRQVGGMNYVSV”, the “soluble fraction (log2)” value is -0.044.

“HMLKDKLSDKDFDFYKNKIQIQLQGNPTELKELVRRFSSTEEQQILKTIDYMLDNGFLRIDEDNMIYWK”: the “soluble fraction (log2)” value was -0.0419.

Regarding “HMLKDQSIAQLEKNLDDLKGLMRKMFGSSDVPKITKMISDIESSLANFNQSKANKLIVQTTNYISSKL”, the “soluble fraction (log2)” value was -0.664.

For the sequence “HMLKEDSAYELGLRIFDQALNDYGTSFIDLKEDEYKKVLSIYGYSNPRQLIINIGLGNVIPHLLARDITE”, the “soluble fraction (log2)” value is -1.34.

For the sequence “HMLKEGIKEKINQLQVYADKNDNIIWYDRVVDILSDKDDSVTDEMIEAAIRTLEEAGISVERKQ”, the “soluble fraction (log2)” value came out at 0.0727.

On to “HMLKEGQYSPNHFHWHKMEDIINRGGGTLLIRVYNSLPDEEIDRESDVTVHMDGVTRTVPAGTQLRLE”, for which the “soluble fraction (log2)” value is -0.124.

Regarding “HMLKETGVITASVLNVREDIGTSSNIVAQLKKGMEVNILESRAIAGSETWYRIDAGSIKGWIFGDYI”, the “soluble fraction (log2)” value is -3.37.

As for “HMLKFGLSQRELQILALLPTDEPLSILAKSLFISESTLKTHLTHIYRKLGVKNRLQAINVARKAGLLK”, the “soluble fraction (log2)” value was -1.59.

“HMLKHSKQRDAIEQFLATRYDHPTAETVYMNLREEYPKLSLATVYRNLSLLAELGNIQKIPTGNGPDRFDG”: the “soluble fraction (log2)” value is -0.343.

Regarding “HMLKIAENIYQRRKEKNITQEELADFMMVTKASVSKWETGQSYPDILLLPKLATFFNVTVDELIGYEPQ”, the “soluble fraction (log2)” value was -2.72.

Consider “HMLKIVRSREEVESRLYTIYGNVKGRRLYNFYLSLIIDGLDIVKARTSKNVYYTNIRNLKNAGIDFSQKIN”, for which the “soluble fraction (log2)” value was -2.28.

For “HMLKPKDLHLGDSVRVLSLNLKGTVSSLPDTKGFLFVQMGIMRSKLHISDLQLIDEPVITAP”, the “soluble fraction (log2)” value is -2.23.

Consider “HMLLFSVADIVKRSKRILSFKTDAELAAYFGVSRSTLSNWIARNSIDFPLLLSKMKDVDYTWLILGKGTPG”, for which the “soluble fraction (log2)” value was -3.97.

Take “HMLLLHINQMGVTEFSQLELNHVRSWLANLQIKGAARSSITRRVVSVRAFTYWGAKNGWLASDIGRDLVAP”: the “soluble fraction (log2)” value was -0.459.

Regarding “HMLLRVGGLVKDGSVRTDNDLGIKFIIEDNLAEVSVLYNGILPDLFREGQGVIAEGKFIDNIFIANEIVA”, the “soluble fraction (log2)” value was -0.682.

Consider “HMLLSHTAQREGELLTFLRGELALSSGLVKRLKWQNAFFLDGAPVHTNARVKPGQEITVRIEE”, for which the “soluble fraction (log2)” value was -1.59.

“HMLLTEETLPQLKQIVDEFPYFQIARMLYLKNLAVLNDIRFSVELKKMSIYVPDRRKLFTLIEGE”: the “soluble fraction (log2)” value worked out at 0.044.
